Measured values published in US20080051336A1 (Janssen / Centocor, published 2008).
Where two headings read alike, the source gives them in different places. Ends that are not written are not given here.

T1: human GPCR135 (human, UniProt Q9NSD7 1-469)
T1 sequence: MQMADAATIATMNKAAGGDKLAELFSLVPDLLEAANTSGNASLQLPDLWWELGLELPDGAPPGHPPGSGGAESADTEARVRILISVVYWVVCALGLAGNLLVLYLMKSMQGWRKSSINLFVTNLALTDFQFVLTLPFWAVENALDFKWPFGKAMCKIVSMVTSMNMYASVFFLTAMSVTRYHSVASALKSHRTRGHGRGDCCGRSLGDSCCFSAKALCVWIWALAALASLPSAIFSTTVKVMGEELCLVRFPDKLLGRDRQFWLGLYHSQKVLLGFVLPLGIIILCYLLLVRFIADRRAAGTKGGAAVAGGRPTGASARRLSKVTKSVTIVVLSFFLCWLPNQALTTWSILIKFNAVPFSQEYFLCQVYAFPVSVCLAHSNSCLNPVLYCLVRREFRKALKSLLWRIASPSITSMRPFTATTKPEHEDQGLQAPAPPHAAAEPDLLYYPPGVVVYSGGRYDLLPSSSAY

T2: human LGR7 (human, UniProt Q9HBX9 1-757)
T2 sequence (looked up): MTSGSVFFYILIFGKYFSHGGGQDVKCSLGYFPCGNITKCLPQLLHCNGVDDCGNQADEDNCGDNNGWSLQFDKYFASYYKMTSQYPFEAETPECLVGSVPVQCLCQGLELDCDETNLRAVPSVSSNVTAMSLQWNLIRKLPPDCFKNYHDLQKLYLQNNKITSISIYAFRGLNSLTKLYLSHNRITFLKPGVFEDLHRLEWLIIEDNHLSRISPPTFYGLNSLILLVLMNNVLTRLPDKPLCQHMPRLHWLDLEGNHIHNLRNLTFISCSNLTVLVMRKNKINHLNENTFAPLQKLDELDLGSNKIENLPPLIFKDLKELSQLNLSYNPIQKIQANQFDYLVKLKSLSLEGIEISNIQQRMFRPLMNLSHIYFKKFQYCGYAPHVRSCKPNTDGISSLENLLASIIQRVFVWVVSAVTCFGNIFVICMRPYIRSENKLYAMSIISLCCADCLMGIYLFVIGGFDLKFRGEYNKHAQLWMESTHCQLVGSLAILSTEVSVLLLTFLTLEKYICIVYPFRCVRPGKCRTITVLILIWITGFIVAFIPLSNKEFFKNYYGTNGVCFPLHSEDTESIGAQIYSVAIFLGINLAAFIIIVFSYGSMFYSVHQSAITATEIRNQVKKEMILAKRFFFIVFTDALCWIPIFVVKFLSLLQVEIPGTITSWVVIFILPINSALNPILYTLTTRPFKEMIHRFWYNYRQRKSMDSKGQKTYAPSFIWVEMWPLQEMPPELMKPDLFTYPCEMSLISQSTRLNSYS


What was measured:
human GPCR142 [1] = biological target: T3, human GPCR142 (human, UniProt Q8TDU9 1-374); experiment: cell-based or functional assay
T3 sequence (Q8TDU9 whole entry L329S): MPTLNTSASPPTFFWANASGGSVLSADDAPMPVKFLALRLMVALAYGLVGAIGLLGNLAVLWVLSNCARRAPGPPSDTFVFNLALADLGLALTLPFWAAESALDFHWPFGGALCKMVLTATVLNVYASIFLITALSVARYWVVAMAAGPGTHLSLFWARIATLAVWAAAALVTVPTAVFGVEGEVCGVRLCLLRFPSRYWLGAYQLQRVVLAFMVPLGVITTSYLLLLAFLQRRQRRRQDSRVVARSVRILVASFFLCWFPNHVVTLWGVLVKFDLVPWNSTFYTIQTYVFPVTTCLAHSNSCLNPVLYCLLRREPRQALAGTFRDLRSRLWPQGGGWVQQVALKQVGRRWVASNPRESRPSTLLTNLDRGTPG

human GPCR135 [2] = biological target: T1, human GPCR135; experiment: cell-based or functional assay
human LGR7 [3] = biological target: T2, human LGR7; experiment: cell-based or functional assay
human LGR8 [4] = biological target: T4, human LGR8 (human, UniProt Q8WXD0 1-754); experiment: cell-based or functional assay
T4 sequence (Q8WXD0 whole entry): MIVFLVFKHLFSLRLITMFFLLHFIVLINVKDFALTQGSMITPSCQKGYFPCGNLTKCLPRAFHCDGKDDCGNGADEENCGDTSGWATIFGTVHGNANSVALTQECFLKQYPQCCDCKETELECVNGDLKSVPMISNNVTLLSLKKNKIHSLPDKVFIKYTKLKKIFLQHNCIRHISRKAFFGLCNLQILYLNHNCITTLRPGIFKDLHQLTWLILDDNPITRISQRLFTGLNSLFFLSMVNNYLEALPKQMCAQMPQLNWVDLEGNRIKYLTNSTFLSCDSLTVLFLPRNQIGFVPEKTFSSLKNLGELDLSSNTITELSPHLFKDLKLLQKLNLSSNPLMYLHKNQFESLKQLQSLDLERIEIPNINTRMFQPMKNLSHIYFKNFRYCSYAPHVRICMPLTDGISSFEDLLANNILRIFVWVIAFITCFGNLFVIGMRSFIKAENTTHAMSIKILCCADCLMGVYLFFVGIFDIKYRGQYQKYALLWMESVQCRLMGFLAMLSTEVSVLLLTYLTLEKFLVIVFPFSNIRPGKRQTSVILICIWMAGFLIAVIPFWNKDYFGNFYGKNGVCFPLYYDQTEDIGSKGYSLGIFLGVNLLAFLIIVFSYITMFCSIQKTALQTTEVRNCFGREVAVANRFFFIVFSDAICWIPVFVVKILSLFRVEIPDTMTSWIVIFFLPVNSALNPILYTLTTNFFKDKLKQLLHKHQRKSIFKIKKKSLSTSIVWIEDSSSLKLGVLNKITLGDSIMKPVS

human LGR8 [5] = biological target: T4, human LGR8; experiment: cell-based or functional assay; remark: listed apart in the source
human GPCR142 [6] = biological target: T3, human GPCR142; experiment: cell-based or functional assay; remark: listed apart in the source
human LGR7 [7] = biological target: T2, human LGR7; experiment: cell-based or functional assay; remark: listed apart in the source
human GPCR135 [8] = biological target: T1, human GPCR135; experiment: cell-based or functional assay; remark: listed apart in the source
human LGR7 [9] = biological target: T2, human LGR7; experiment: competition with [125I]-relaxin-3 (100 pM), live COS-7 cells with human LGR7
Method: (§1) Different unlabeled peptides were used in the binding assay as the competitors. […] Data represent mean±SEM (n=3).
(§2) Radioligand binding assays for LGR7 and LGR8 were performed using live COS-7 cells transiently transfected with LGR7 or LGR8 expression plasmids in 15-cm culture dishes using LipofectAmine (Invitrogen). Two days after transfection, the transfected cells were detached from the 15-cm culture dished using phosphate buffered saline (PBS) plus 10 mM EDTA, seeded into 96-well opaque poly-D-lysine coated culture plates and used for radioligand binding assays. […] [¹²⁵I]-labeled tracer was added in binding reactions at a final concentration of 100 pM in binding buffer containing DMEM plus 50 mM HEPES and 1% bovine serum albumin. […] The binding mixtures were incubated at room temperature for 1 hour. The unbound radioligand was removed by aspiration of the binding buffer. The cells were washed with PBS. The bound radioligand was counted in a scintillation counter (TopCount/NTX). The results were analyzed using Prism 3.0 program (Graphpad, San Diego, Calif.).

human GPCR142 [10] = biological target: T3, human GPCR142; experiment: cell-based or functional assay; remark: listed apart in the source
human LGR7 [11] = biological target: T2, human LGR7; experiment: cell-based or functional assay; remark: listed apart in the source
human GPCR135 [12] = biological target: T1, human GPCR135; experiment: cell-based or functional assay; remark: listed apart in the source
human LGR8 [13] = biological target: T4, human LGR8; experiment: competition with [125I]-INSL3 (100 pM) on live COS-7 cells expressing human LGR8; ND denotes no activity was detected
Method: as §1, §2

human GPCR135 [14] = biological target: T1, human GPCR135; experiment: competition with [125I]-relaxin-3 (100 pM), COS-7 membranes with human GPCR135
Method: as §1
(§3) Peptides for competition binding studies were added to the binding mix (final volume: 200 μl) in binding buffer [50 mM Tris-HCl, pH 7.5, 5 mM EDTA, 1% bovine serum albumin, 0.1% protease inhibitor cocktails (Sigma)]. The binding mixtures were incubated at room temperature for 1 hour, filtered through GFC plates (Packard) pre-saturated with 0.3% Polyethylenimine (Sigma), and washed with cold washing buffer (50 mM Tris-HCl, pH 7.5, 5 mM EDTA).

human GPCR142 [15] = biological target: T3, human GPCR142; experiment: competition with [125I]-relaxin-3 (100 pM), COS-7 membranes with human GPCR142
Method: as §1, §3

human LGR7 [16] = biological target: T2, human LGR7; experiment: radioligand competition, live COS-7 cells with human LGR7
Method: as §1, §2

human LGR8 [17] = biological target: T4, human LGR8; experiment: cell-based or functional assay; remark: listed apart in the source
human LGR8 [18] = biological target: T4, human LGR8; experiment: competition with [125I]-INSL3, live COS-7 cells with human LGR8; this end tied to R3/I3 by Table 1
Method: as §1, §2

human LGR8 [19] = biological target: T4, human LGR8; experiment: competition with [125I]-INSL3 (100 pM), live COS-7 cells with human LGR8
Method: as §1, §2

| Molecule | EC50, inhibition of forskolin stimulated β-galactosidase expression (human GPCR142 [6]) | EC50, ligand stimulated β-galactosidase expression (human LGR7 [7]) | EC50, inhibition of forskolin stimulated β-galactosidase expression (human GPCR135 [8]) | IC50 (human LGR7 [9]) | EC50, ligand stimulated β-galactosidase expression (human LGR7 [11]) | IC50 (human GPCR135 [14]) | IC50 (human GPCR142 [15]) | EC50, ligand stimulated β-galactosidase expression (human LGR8 [17]) | IC50 (human LGR8 [19]) | also measured |
| --- | --- | --- | --- | --- | --- | --- | --- | --- | --- | --- |
| human relaxin-3 B-chain (from UniProt Q8WXF3 26-52) (peptide) |  |  |  |  |  |  |  |  |  | EC50, inhibition of forskolin-stimulated β-galactosidase activity (human GPCR142 [1]): 125 nM; EC50, inhibition of forskolin-stimulated β-galactosidase activity (human GPCR135 [2]): 88 nM |
| porcine relaxin (from UniProt P01348 25-182) (ligand) |  |  |  |  |  |  |  |  |  | EC50, stimulation of β-galactosidase activity (human LGR7 [3]): 0.25 nM; EC50, induction of β-galactosidase activity (human LGR8 [4]): 1.5 nM |
| human INSL3 (ligand, ends and bridges not checked; also: 125I-labelled form used as tracer, site not given here) PTPEMREKLCGHHFVRALVRVCGGPRWSTEANPARYCCLSGCTQQDLLTLC |  |  |  |  |  |  |  |  |  | EC50, induction of β-galactosidase activity (human LGR8 [5]): 0.16 nM |
| RAAPYGVRLCGREFIRAVIFTCGGSRWGYSEKCCLTGCTKEELSIAC (ligand, disulfide (positions not given here); also: two chains (relaxin-3 B-chain, INSL6 A-chain), disulfide-linked, chain break not marked, Mature two-chain peptide: human relaxin-3 B-chain disulfide-linked to human INSL6 A-chain; FLAG tag removed) [human relaxin-3/INSL6 chimeric polypeptide (R3/I6), mature] | 11.2 nM | 13.7 nM | 8.4 nM | 12.9 nM | 10 nM | 9.5 nM | 11.3 nM |  |  | EC50, inhibition of forskolin stimulated β-galactosidase expression (human GPCR142 [10]): ~10 nM; EC50, inhibition of forskolin stimulated β-galactosidase expression (human GPCR135 [12]): ~10 nM; binding result (human LGR8 [13]): no binding; IC50 (human LGR7 [16]): 15 nM |
| RAAPYGVRLCGREFIRAVIFTCGGSRWNPARYCCLSGCTQQDLLTLC (ligand, disulfide (positions not given here); also: two chains (relaxin-3 B-chain, INSL3 A-chain), disulfide-linked, chain break not marked, Mature two-chain peptide: human relaxin-3 B-chain disulfide-linked to human INSL3 A-chain; FLAG tag removed) [human relaxin-3/INSL3 chimeric polypeptide (R3/I3), mature] | 2.9 nM | 2.5 nM | 2.2 nM | 2.3 nM |  | 2.3 nM | 3.5 nM | 258 nM | 475 nM | EC50, ligand stimulated β-galactosidase expression (human LGR8 [5]): ~300 nM; IC50 (human LGR8 [18]): 500 nM |
| human relaxin-3/relaxin-2 chimeric polypeptide (R3/R2), mature (ligand, disulfide (positions not given here); also: two-chain peptide (relaxin-3 B chain, relaxin-2 A chain), disulfide-linked, places not given here, Mature two-chain peptide: human relaxin-3 B-chain disulfide-linked to human relaxin-2 A-chain; FLAG tag removed) RAAPYGVRLCGREFIRAVIFTCGGSRWQLYSALANKCCHVGCTKRSLARFC | 1.4 nM | 1.1 nM | 1.1 nM | 1.5 nM | 1 to 5 nM | 1.2 nM | 1.8 nM | 575 nM | 615 nM | EC50, ligand stimulated β-galactosidase expression (human LGR8 [5]): ~600 nM |
| RAAPYGVRLCGREFIRAVIFTCGGSRWPYVALFEKCCLIGCTKRSLAKYC (ligand, disulfide (positions not given here); also: two chains (relaxin-3 B-chain, relaxin-1 A-chain), disulfide-linked, chain break not marked, Mature two-chain peptide: human relaxin-3 B-chain disulfide-linked to human relaxin-1 A-chain; Made in COS-7 cells with furin; the FLAG tag was removed with enterokinase) [human relaxin-3/relaxin-1 chimeric polypeptide (R3/R1), mature] | 2.2 nM | 4.5 nM | 1.8 nM | 5.1 nM | 1 to 5 nM | 2.9 nM | 2.6 nM | > 1000 nM | > 1000 nM |  |
